{
  "source": "FireProtDB (doi:10.1111/j.1432-1033.1995.tb20713.x)",
  "conditions": "Saccharomyces cerevisiae (strain ATCC 204508 / S288c), Fluorescence, reversible: yes, whole UniProt chain shown",
  "key": {"[1]": {"conditions": "pH 4.6, Thermal, Acetic acid-NaOH 30 mM"}, "[2]": {"conditions": "pH 7.5, 5.2 °C, GdnHCl, MOPS-NaOH 30 mM"}, "[3]": {"conditions": "pH 7.5, 10.2 °C, GdnHCl, MOPS-NaOH 30 mM"}, "[4]": {"conditions": "pH 7.5, 15.2 °C, GdnHCl, MOPS-NaOH 30 mM"}, "[5]": {"conditions": "pH 7.5, Thermal, MOPS-NaOH 30 mM"}},
  "data": [
    {"protein": "Adenylate kinase wild type, P07170 (protein) MSSSESIRMVLIGPPGAGKGTQAPNLQERFHAAHLATGDMLRSQIAKGTQLGLEAKKIMDQGGLVSDDIMVNMIKDELTNNPACKNGFILDGFPRTIPQAEKLDQMLKEQGTPLEKAIELKVDDELLVARITGRLIHPASGRSYHKIFNPPKEDMKDDVTGEALVQRSDDNADALKKRLAAYHAQTEPIVDFYKKTGIWAGVDASQPPATVWADILNKLGKD", "values": [
      {"measurement": "unfolding free energy", "setting": "pH 4.6, 25 °C, Thermal, Acetic acid-NaOH 30 mM", "result": 2.15, "unit": "kcal/mol"},
      {"measurement": "Tm", "setting": "[1]", "result": 48.6, "unit": "°C"},
      {"measurement": "unfolding enthalpy (van 't Hoff)", "setting": "[1]", "result": 57.4, "unit": "kcal/mol"},
      {"measurement": "denaturant m value", "setting": "[2]", "result": 5.28, "unit": "kcal/mol/M"},
      {"measurement": "denaturant midpoint (higher = more stable)", "setting": "[2]", "result": 0.76, "unit": "M"},
      {"measurement": "unfolding free energy", "setting": "[2]", "result": 3.97, "unit": "kcal/mol"},
      {"measurement": "denaturant m value", "setting": "[3]", "result": 6.98, "unit": "kcal/mol/M"},
      {"measurement": "denaturant midpoint (higher = more stable)", "setting": "[3]", "result": 0.7, "unit": "M"},
      {"measurement": "unfolding free energy", "setting": "[3]", "result": 4.9, "unit": "kcal/mol"},
      {"measurement": "denaturant m value", "setting": "[4]", "result": 7.29, "unit": "kcal/mol/M"},
      {"measurement": "denaturant midpoint (higher = more stable)", "setting": "[4]", "result": 0.75, "unit": "M"},
      {"measurement": "unfolding free energy", "setting": "[4]", "result": 5.47, "unit": "kcal/mol"},
      {"measurement": "unfolding free energy", "setting": "pH 7.5, 25 °C, Thermal, MOPS-NaOH 30 mM", "result": 3.82, "unit": "kcal/mol"},
      {"measurement": "Tm", "setting": "[5]", "result": 47.7, "unit": "°C"},
      {"measurement": "unfolding enthalpy (van 't Hoff)", "setting": "[5]", "result": 81.3, "unit": "kcal/mol"}
    ]}
  ]
}
